Measured values: US20240010750A1 (Bayer, published 2024)

Experiments:
[1] = molecular target: T1, A2AP peptides with the consensus motif SRMSLSS (human); assay: PEPperCHIP peptide microarray, antibody at 1 µg/ml
T1 construct: Consensus motif shared by the reacting peptides of the PEPperCHIP arrays (linear 15-mers; cyclic 7-, 10- and 13-mers closed by a thioether)
T1 peptide: SRMSLSS
Method: (§1) Antibodies were incubated on the Microarray in concentrations of 1 μg/ml, 10 μg/ml and 100 μg/ml in incubation buffer. Incubation time was 16 h at 4° C. and shaking at 140 rpm.
(§2) As secondary antibody the goat anti-human IgG (Fc) DyLight680 was used at a dilution of 1:5000. This detection antibody was incubated on the Microarray at 45 min staining in incubation buffer at room temperature.
(§3) Microarray image analysis was done with PepSlide® Analyzer. A software algorithm was used to break down fluorescence intensities of each spot into raw, foreground and background signal, and calculated averaged median foreground intensities and spot-to-spot deviations of spot duplicates. Based on averaged median foreground intensities, an intensity map was generated and interactions in the peptide map highlighted by an intensity color code with red for high and white for low spot intensities. Averaged spot intensities of the assays were plotted with the antibody samples against the antigen sequence from the N- to the C-terminus to visualize overall spot intensities and signal-to-noise ratios. The intensity plots were correlated with peptide and intensity maps as well as with visual inspection of the microarray scans to identify the epitopes of the tested antibodies.

[2] = molecular target: T2, cynomolgus alpha2-Antiplasmin (cynomolgus (Macaca fascicularis), UniProt P08697 28-491 (human entry)); assay: ELISA (Example 3): antigen coated at 1 ug/ml, detection with anti-human lambda light chain-peroxidase and Amplex Red, RFU
T2 construct: Made in house in the same way as the rabbit protein; also called cynomolgus A2AP; Macaca fascicularis A2AP
T2 chain: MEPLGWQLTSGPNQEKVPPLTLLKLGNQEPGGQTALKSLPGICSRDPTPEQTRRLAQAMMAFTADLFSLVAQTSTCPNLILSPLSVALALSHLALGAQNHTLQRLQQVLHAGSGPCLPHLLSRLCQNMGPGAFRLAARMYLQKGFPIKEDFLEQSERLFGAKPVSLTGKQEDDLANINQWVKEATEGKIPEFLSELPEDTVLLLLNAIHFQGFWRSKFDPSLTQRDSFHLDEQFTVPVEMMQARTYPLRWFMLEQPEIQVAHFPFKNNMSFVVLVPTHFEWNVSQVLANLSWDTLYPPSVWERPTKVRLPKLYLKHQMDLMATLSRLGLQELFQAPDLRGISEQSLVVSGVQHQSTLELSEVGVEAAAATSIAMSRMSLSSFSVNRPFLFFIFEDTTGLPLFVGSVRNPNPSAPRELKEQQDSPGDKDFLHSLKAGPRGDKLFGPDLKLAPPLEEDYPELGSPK
Method: (§4) A standard ELISA format was used for analyzing the binding affinity of Fabs of this invention to human and rabbit alpha-2-Antiplasmin, respectively. Antigens were coated to black 384 well Maxisorp microtiter plates (Nunc; catalogue number 460518), diluted to a concentration of 1 μg/ml in 1× Coating Buffer (Candor Bioscience; catalogue number 121125). Plates were incubated overnight at 4° C. After overnight incubation, plates were washed 2× with 50 μl/well using PBS+0.05% Tween 20. Following this, 50 μl/well of blocking buffer (Smart Block; Candor Bioscience; catalogue number 113500) was added and the plates were incubated for 1 hour at room temperature. Afterwards, plates were washed for 3× using […] PBS+0.05% Tween 20 buffer. Fabs of this invention were added at different concentrations in a final volume of 30 μl/well. Plates were incubated for 1 hour at room temperature. Following this incubation step, plates were washed for 3× using 50 μl/well of a PBS+0.05% Tween 20 buffer. For the detection of bound Fabs and full-length antibodies, the anti-Human Lambda Light Chains (Bound and Free)—Peroxidase antibody (Sigma; catalogue number A5175) was diluted by the factor of 1:10.000 in 10% Blocking Buffer. 30 μl/well of this diluted detection antibody was added and plates are incubated for 1 hour at room temperature. […]

[3] = molecular target: T1, A2AP peptides with the consensus motif …; assay: PEPperCHIP peptide microarray, antibody at 10 µg/ml
Method: as §1, §2, §3

[4] = molecular target: T3, human alpha2-Antiplasmin (human, UniProt P08697 40-491); assay: ELISA (Example 3): antigen coated at 1 ug/ml, detection with anti-human lambda light chain-peroxidase and Amplex Red, RFU [left panel]
T3 construct: Bought (antibodies online, ABIN2544306); also called human A2AP; a2AP
T3 sequence: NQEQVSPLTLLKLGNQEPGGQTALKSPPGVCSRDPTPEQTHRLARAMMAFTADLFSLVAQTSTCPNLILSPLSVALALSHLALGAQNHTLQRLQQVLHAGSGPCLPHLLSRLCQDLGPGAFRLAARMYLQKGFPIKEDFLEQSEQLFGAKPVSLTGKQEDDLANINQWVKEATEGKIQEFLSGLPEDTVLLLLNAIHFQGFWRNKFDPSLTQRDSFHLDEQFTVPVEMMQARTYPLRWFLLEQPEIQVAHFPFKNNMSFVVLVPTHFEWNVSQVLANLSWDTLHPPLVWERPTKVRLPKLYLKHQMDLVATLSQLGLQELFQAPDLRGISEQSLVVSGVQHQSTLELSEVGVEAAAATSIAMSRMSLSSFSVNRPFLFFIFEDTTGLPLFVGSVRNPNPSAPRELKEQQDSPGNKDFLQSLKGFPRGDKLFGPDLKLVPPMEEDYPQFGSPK
Method: Binding activities towards human alpha2-Antiplasmin are shown in the left panel, towards rabbit alpha2-Antiplasmin are shown in the right panel of this figure. The binding activities were calculated as EC50 in M values.
as §4, with “buffer.” for “buffer. For the detection of bound Fabs and full-length antibodies, the anti-Human Lambda Light Chains (Bound and Free)—Peroxidase antibody (Sigma; catalogue number A5175) was diluted by the factor of 1:10.000 in 10% Blocking Buffer. 30 μl/well of this diluted detection antibody was added and plates are incubated for 1 hour at room temperature.”
For measurement, the Infinite f500 reader (Tecan) was used.

signal-to-noise-ratio at 1 µg/ml [1]: 659 | EC50 (read off the curve) [2]: ~100 nM | signal-to-noise-ratio at 10 µg/ml [3]: 2260 | EC50 (read off the curve) [4]: ~100 nM
B1: TPP-12387 hIgG1 (antibody, V domains shown)
VH: EVQLLESGGGLVQPGGSLRLSCAASGFTFDDYAMSWVRQAPGKGLEWVSAIGTGGGTYYADSVKGRFTISRDNSKNTLYLQMNSLRAEDTAVYYCAREYYDSSGYYHLDYWGQGTLVTVSS
VL: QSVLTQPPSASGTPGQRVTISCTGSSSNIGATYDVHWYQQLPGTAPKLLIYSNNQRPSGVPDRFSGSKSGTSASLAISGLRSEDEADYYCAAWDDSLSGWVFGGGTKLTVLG
notes: Fully human IgG1 lambda from the BioInvent n-CoDeR Fab lambda library; parental lead antibody
